Measured values from the nanobody polyreactivity screen of Harvey et al. (2022).

Assay: yeast display, Sf9 membrane polyspecificity reagent, FACS + sequencing; frameworks hold sequencing errors
Procedure, shortened: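 After 36–48 hours of galactose induction, yeast (Saccharomyces cerevisiae BJ5465) displaying a synthetic nanobody library were stained at 4 °C for 1 hour with 10% biotinylated, detergent-solubilized Sf9 membrane reagent. Streptavidin microbeads enriched the stained cells before FACS sorting into low and high (top ~1%) gates on anti-HA and streptavidin fluorescence. Each clone's polyreactivity label reflects its gate of origin.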

Sequence	polyreactivity (PSR sort gate)
QVQLVESGGGLVQAGGSLRLSCAASGLTFYHVNAMGWYRQAPGKERELVAGISTRGGSTYYADSVKGRFTISRDNAKNTVYLQMNSLKPEDTAVYYCAAYGSAAQKYPYDRPYRYGYWGQGTQVTVSS	high polyreactivity
QVQLVESGGGLVQAGGSLRLSCAASGLTFYHYAMGSYRQAPGKERELVAAITTIGGSTNYADSVKGRFTISRDNAKNTVYLQMNSLKPADNAVYYCAKKLTDAQASSHYDYWGQGTQVTVSS	low polyreactivity
QVQLVESGGGLVQAGGSLRLSCAASGLTFYIYAMGWYRQAPGKERELVASITWSTTSTSYADSVKGRFTISRDNAKNTVYLQLKSLKPEDTAVYYCNADVPGYFLYDDSYEYWGQGTQVTVSS	low polyreactivity
QVQLVESGGGLVQAGGSLRLSCAASGLTFYKNAMGWYRQAPGKERELVAVISSSGGSTYYADSVKGRFTISRDNAKNTVYLQMYSLKPEDSAVYYFARDLYTEYRWGRLTYDYRGQGTQVTVSS	low polyreactivity
QVQLVESGGGLVQAGGSLRLSCAASGLTFYLYAMGWYRQAPGKERELVAAISRSGGSTYYADSVKGRFTISRDNAKNTVYLQMNSLKPEDTAVYYCAAVTYYPEIRKYYYWGQGTQVTVSS	high polyreactivity
QVQLVESGGGLVQAGGSLRLSCAASGLTFYRNAMGWYRQAPGKERELVAAITKSGARTYYAVSVKGRFTISRDNAKNTVYLQMNSLKPEDTAVYYCAADALNTYYYWGQGTQVTVSS	high polyreactivity
QVQLVESGGGLVQAGGSLRLSCAASGLTFYSNSMGWYRPAPGKERELVAVISADGASTYYADSVKGRFTISRDNAKNTVYLQMNSLKPEDTAVYYCAARVSARGKGYYWGQGTQVTVSS	high polyreactivity
QVQLVESGGGLVQAGGSLRLSCAASGLTFYTNAMGWYRQAPGKERELVAAITSSGGRTYYADSVKGRFTISRDNAKNTVYLQMNILKPEDTAVYYCAADALRPRIPEMYYWGQGTQVTVSS	high polyreactivity
QVQLVESGGGLVQAGGSLRLSCAASGLTFYTYPMGWYRQAPGKERELVAAISSSTGSTYYADSVKGRFTISRDNAKNTVYLQMNSLKPEDSAVYYCAAESYWGVNYWGQGTQVTVSS	high polyreactivity
QVQLVESGGGLVQAGGSLRLSCAASGLTFYVYTMGWYRQAPGKERELVAVISSGDSTYYADSVKGRFTISRDNAKNTVYLQMNSLKPEDTAVYYCAAGTHYRIVRYGLYDYWGQGTQVTVSS	low polyreactivity
QVQLVESGGGLVQAGGSLRLSCAASGLTFYVYTMGWYRQEPGKERELVAAITGSGGSTFYADSVKGRFTISRDNAKNTVFIQMNSLKREDTAVYYCAAYYYMSDGYDYWGQGTQVTVSS	low polyreactivity
QVQLVESGGGLVQAGGSLRLSCAASGLTFYWNAMGWYRQAPGKERELVASISQSSGNTYYADSVKGRFTISRDNAKNTVYFQMNSLKPEDTAVYYCAARNRPSLNRYYYWGQGTQVNVSS	low polyreactivity
QVQLVESGGGLVQAGGSLRLSCAASGLTFYYNAMGWYRQAPGKERELVAAISRSGGSTYYADSVKGRFTISRDNAKNTVYLQMNSLEPEDTAVYYCAAALRKEYDYWGQGTQVTVSS	high polyreactivity
QVQLVESGGGLVQAGGSLRLSCAASGLTFYYNAMGWYRQAPGKERELVAAITRGTSTHYADSVKWRFTISRDNAKNTVYLQMNSLKPEDTAVYYCAAPYRYSWWRGDYWGQGTQVTVSS	high polyreactivity
QVQLVESGGGLVQAGGSLRLSCAASGLTFYYYAMGWSRQAPGKERELVAAISRSGGSTYYADSVKGRFTISRDNAKNTVYLQINSLKPEDTAVYYCAAREPYEGQRYYYEYYYWGQGTQVTVSS	high polyreactivity
QVQLVESGGGLVQAGGSLRLSCAASGLTFYYYAMGWYRQAPGKERELVASINRSSGSTYYADSVKGRFTISRDNAKNTVYLQMNSLKPEDTAVYYCAVKKHWPHPAYTRYYKYYYWGQGTQVTVSS	high polyreactivity
QVQLVESGGGLVQAGGSLRLSCAASGLTFYYYAMGWYSQPPGKERELVAAISIGGSTDYADSVKGRFTISRDNAKNTVYLQMNSLKPEDTAVYYCNVDDNSEYEYWGQGTQVTVSS	low polyreactivity
QVQLVESGGGLVQAGGSLRLSCAASGLTFYYYTMGWYRQAPGKERELVATISRSGTSTNYADSVKGRFTISRDNAKNTVYLQMNSLKPEDTAVYYCAAVLRWRDLFSEYYYWGQGTQVTVSS	high polyreactivity
QVQLVESGGGLVQAGGSLRLSCAASGLTIDYYTMGWYRQAPGKERELVAAINWSGGRTYYADSVKGRFTISRDHAKNTVYLQMNSLKPEDTAVYYCAADTYRRHDDDYWGQGTQVTVSS	high polyreactivity
QVQLVESGGGLVQAGGSLRLSCAASGLTIFRNAMGWYRQAPGKEREFVAGITSTDGSTYYADSVKGRFTISRDNAKNTVYLQMNSLKPEDTAVYYCAAAYRVRGRTYDSWGQGTQVTVSS	high polyreactivity
QVQLVESGGGLVQAGGSLRLSCAASGLTIFVNAMGWYRQAPGKERELVATISCGGSTYYADSVKGRFTISRDNANNTVYLQLNSLKPEDSSVFYCNAADVGGQWWYPYTYNYWGQGTQVTVSS	low polyreactivity
QVQLVESGGGLVQAGGSLRLSCAASGLTIWRYAMGWYRQAPGKEREFVATISQNGGRTYYADSVKGRFTISRDNAKNTVYLQMNSLKPEVNAVYYCAADDWRWGYDYWGQGTQVTVSS	high polyreactivity
